Test results published in the Human Domainome abundance scans (Beltran et al. 2025).
± gives the uncertainty stated by the source.

B1: Ankyrin-2, residues 3571 to 3650; numbered along this chain, Q01484 (parent)
chain: ERLAYIADHLGFSWTELARELDFTEEQIHQIRIENPNSLQDQSHALLKYWLERDGKHATDTNLVECLTKINRMDIVHLME

Variants of: B1
Assay: abundance fitness (aPCA) (normalised: wild type 0, dead -1); higher = more abundant; growth selection in yeast, the domain comes from the species named
Conditions: Homo sapiens

Point of comparison: K48L, abundance fitness 0.02 ± 0.068. Against it:
- K56Y — within error, -0.13 ± 0.12
- K56D — within error, 0.052 ± 0.14
- K56E — within error, 0.149 ± 0.12
- K56R — within error, -0.037 ± 0.045
- K56A — within error, -0.02 ± 0.059
- D41I — within error, 0.004 ± 0.066
- D41K — within error, -0.034 ± 0.14
- D41G — within error, 0.006 ± 0.05
- D41Y — lower, -0.213 ± 0.074
- D41V — within error, -0.065 ± 0.057
- D41M — within error, -0.019 ± 0.079
- G55I — within error, -0.089 ± 0.064
- G55C — within error, -0.114 ± 0.077
- G55F — lower, -0.143 ± 0.051
- G55E — within error, -0.033 ± 0.044
- G55Y — within error, -0.052 ± 0.066
- G55L — within error, -0.017 ± 0.031
- L51Q — within error, 0.104 ± 0.13
- L51R — within error, -0.072 ± 0.065
- L51D — within error, -0.058 ± 0.11
- L51T — within error, 0.017 ± 0.17
- L51E — within error, -0.111 ± 0.22
- L51P — lower, -0.272 ± 0.079
- S43A — lower, -0.281 ± 0.14
- H44A — within error, 0.028 ± 0.12
- H44S — within error, 0.016 ± 0.22
- H44Q — within error, -0.062 ± 0.15
- Y49N — within error, -0.056 ± 0.12
- Y49K — within error, -0.052 ± 0.18
- Y49D — within error, -0.031 ± 0.12
- Y49S — within error, -0.001 ± 0.051
- Y49G — within error, 0.042 ± 0.055
- Y49A — within error, 0.016 ± 0.065
- Y5H — within error, 0.013 ± 0.28
- Y5N — within error, 0.386 ± 0.43
- Y5C — within error, 0.137 ± 0.17
- Y5M — lower, -0.559 ± 0.43
- Y5P — within error, -0.019 ± 0.17
- Y5W — within error, -0.143 ± 0.26
- D60F — within error, 0.074 ± 0.093
- D60L — within error, -0.022 ± 0.059
- D60T — within error, -0.016 ± 0.11
- D60Q — within error, -0.018 ± 0.075
- E25Y — within error, -0.122 ± 0.12
- E25M — within error, -0.113 ± 0.074
- E25F — lower, -0.199 ± 0.12
- E25H — within error, -0.072 ± 0.14
- E25V — within error, -0.064 ± 0.056
- Q40G — lower, -0.146 ± 0.095
- Q40E — within error, 0.051 ± 0.18
- Q40L — lower, -0.171 ± 0.095
- T15A — within error, -0.02 ± 0.055
- T15D — within error, -0.195 ± 0.19
- T15L — within error, 0.036 ± 0.061
- T15K — within error, 0.079 ± 0.14
- T15E — within error, -0.185 ± 0.15
- T15R — within error, -0.057 ± 0.059
- T15P — within error, 0.01 ± 0.063
- T68P — lower, -0.098 ± 0.046
- T68G — within error, -0.039 ± 0.077
- T68M — within error, -0.102 ± 0.095
- T68I — within error, -0.122 ± 0.29
- T68K — within error, -0.044 ± 0.088
- N35M — within error, -0.03 ± 0.086
- N35S — within error, -0.093 ± 0.051
- N35V — within error, -0.084 ± 0.059
- N35D — lower, -0.296 ± 0.17
- N35L — lower, -0.128 ± 0.067
- N35H — within error, -0.118 ± 0.21
- L21G — within error, -0.072 ± 0.056
- L21S — lower, -0.33 ± 0.069
- L21K — lower, -0.32 ± 0.098
- L21C — lower, -0.488 ± 0.23
- L21N — within error, -0.149 ± 0.45
- L67M — lower, -0.249 ± 0.1
- L67W — lower, -0.832 ± 0.19
- L67I — lower, -0.199 ± 0.13
- L67A — lower, -0.224 ± 0.094
- L67C — within error, -0.153 ± 0.13
- L67F — lower, -0.591 ± 0.23
- I31F — within error, 0.023 ± 0.21
- I31C — within error, 0.027 ± 0.18
- I31R — lower, -1.04 ± 0.12
- I31E — lower, -0.791 ± 0.45
- I31G — lower, -0.936 ± 0.1
- T59W — within error, -0.099 ± 0.062
- T59M — within error, -0.124 ± 0.13
- T59E — within error, -0.069 ± 0.088
- E16T — within error, 0.038 ± 0.12
- E16I — within error, 0.061 ± 0.22
- E16S — within error, -0.028 ± 0.05
- E16H — within error, 0.028 ± 0.17
- E16P — lower, -0.233 ± 0.075
- V64F — within error, -0.073 ± 0.1
- V64T — within error, 0.025 ± 0.095
- V64W — within error, -0.165 ± 0.14
- V64G — within error, -0.108 ± 0.078
- T24Q — within error, 0.025 ± 0.17
- T24P — lower, -0.138 ± 0.059
- R2G — within error, -0.208 ± 0.34
- S13M — within error, -0.129 ± 0.18
- S13Q — within error, 0.059 ± 0.17
- S13F — within error, -0.036 ± 0.1
- S13V — lower, -0.214 ± 0.099
- S13Y — within error, -0.228 ± 0.2
- R19H — within error, 0.028 ± 0.13
- R19Y — within error, -0.396 ± 0.44
- R19F — within error, -0.195 ± 0.15
- R19W — within error, 0.001 ± 0.075
- R19K — within error, 0.077 ± 0.11
- R19D — within error, -0.006 ± 0.18
- D22G — within error, -0.075 ± 0.06
- D22K — within error, -0.051 ± 0.12
- D22W — lower, -0.223 ± 0.067
- D22E — lower, -0.217 ± 0.14
- D22V — lower, -0.206 ± 0.066
- D22M — within error, -0.075 ± 0.05
- S38L — within error, -0.086 ± 0.043
- S38N — within error, -0.065 ± 0.14
- S38F — within error, -0.155 ± 0.14
- S38I — lower, -0.396 ± 0.18
- S38R — lower, -0.096 ± 0.047
- S38V — within error, -0.092 ± 0.055
- K48Q — within error, -0.097 ± 0.11
- K48D — within error, -0.062 ± 0.17
- K48H — within error, -0.015 ± 0.12
- K48C — within error, 0.054 ± 0.14
- K48P — lower, -0.848 ± 0.075
- G11D — within error, -0.052 ± 0.12
- G11P — lower, -0.536 ± 0.076
- G11M — lower, -0.223 ± 0.14
- N62S — within error, 0.007 ± 0.048
- N62H — within error, 0.015 ± 0.11
- N62Y — within error, -0.135 ± 0.12
- N62W — within error, 0.012 ± 0.12
- N62P — within error, -0.079 ± 0.054
- L63T — lower, -0.408 ± 0.1
- L63G — lower, -0.624 ± 0.086
- L63P — lower, -0.651 ± 0.071
- L63H — lower, -0.777 ± 0.22
- A18R — lower, -1.37 ± 0.3
- A18G — within error, -0.128 ± 0.1
- A18D — lower, -0.514 ± 0.38
- A18L — lower, -1.03 ± 0.16
- A18M — lower, -0.519 ± 0.19
- E52V — within error, 0.006 ± 0.063
- E52Q — within error, 0.088 ± 0.12
- E52G — lower, -0.146 ± 0.055
- E52T — within error, 0.006 ± 0.087
- E52Y — lower, -0.393 ± 0.098
- E52L — within error, 0.012 ± 0.081
- E52I — within error, -0.039 ± 0.11
- I6P — lower, -0.412 ± 0.16
- T61G — within error, -0.011 ± 0.079
- T61A — within error, -0.102 ± 0.063
- T61R — within error, -0.118 ± 0.084
- T61P — within error, 0.029 ± 0.06
- E26K — within error, 0.035 ± 0.1
- E26W — within error, -0.105 ± 0.069
- E26S — within error, -0.091 ± 0.057
- C66H — within error, 0.009 ± 0.2
- C66F — within error, -0.035 ± 0.1
- C66R — within error, 0.001 ± 0.045
- C66K — within error, 0.014 ± 0.1
- C66I — lower, -0.143 ± 0.082
- C66T — within error, -0.078 ± 0.065
